# Measurements reported in patent US20160017295A1.
# What was measured:
# Assay in all cases: cell-based or functional assay
# [1] = target: SM 10-2 variant AAV capsid (Adeno-associated virus 2 (isolate Srivastava/1982) (AAV-2)) (UniProt P03135)
# [2] = target: SM 10-8 variant AAV capsid (Adeno-associated virus 2 (isolate Srivastava/1982) (AAV-2)) (UniProt P03135)
# [3] = target: SM 100-10 variant AAV capsid (Adeno-associated virus 2 (isolate Srivastava/1982) (AAV-2)) (UniProt P03135)
# [4] = target: SM 100-3 variant AAV capsid (Adeno-associated virus 2 (isolate Srivastava/1982) (AAV-2)) (UniProt P03135)
# [5] = target: Variant 1.45 (AAV2 capsid with N312K, N449D) (AAV2 (adeno-associated virus type 2)) (UniProt P03135)
# [6] = target: variant γ4.3 (AAV2 capsid with N312K, N449D, N551S, I698V) (AAV2 (adeno-associated virus type 2)) (UniProt P03135)
# [7] = target: wild-type AAV1 capsid (recombinant AAV-GFP vector) (AAV1 (adeno-associated virus type 1))
# [8] = target: wild-type AAV2 capsid (recombinant AAV-GFP vector) (AAV2 (adeno-associated virus type 2)) (UniProt P03135)
# [9] = target: wild-type AAV8 capsid (recombinant AAV-GFP vector) (AAV8 (adeno-associated virus type 8))
substance,measurement,setting,value
"human IVIG (Gamimune N, 10% Human IVIG, Bayer)",Fold Resistance Relative to AAV2,[1],7.52 fold
same,Neutralizing IVIG concentration mg/ml (reduces gene delivery efficiency to 50%),[1],0.113 mg/mL
same,Fold Resistance Relative to AAV2,[2],3.41 fold
same,Neutralizing IVIG concentration mg/ml (reduces gene delivery efficiency to 50%),[2],0.051 mg/mL
same,Fold Resistance Relative to AAV2,[3],4.39 fold
same,Neutralizing IVIG concentration mg/ml (reduces gene delivery efficiency to 50%),[3],0.066 mg/mL
same,Fold Resistance Relative to AAV2,[4],4.94 fold
same,Neutralizing IVIG concentration mg/ml (reduces gene delivery efficiency to 50%),[4],0.074 mg/mL
same,enhanced resistance to IVIg compared to wild-type AAV2,[5],1.23 fold
same,enhanced resistance to IVIg compared to wild-type AAV2,[6],3.1 fold
same,Fold Resistance Relative to AAV2,[7],1.76 fold
same,Neutralizing IVIG concentration mg/ml (reduces gene delivery efficiency to 50%),[7],0.026 mg/mL
same,Fold Resistance Relative to AAV2,[8],1 fold
same,Neutralizing IVIG concentration mg/ml (reduces gene delivery efficiency to 50%),[8],0.015 mg/mL
same,Fold Resistance Relative to AAV2,[9],6.11 fold
same,Neutralizing IVIG concentration mg/ml (reduces gene delivery efficiency to 50%),[9],0.092 mg/mL
